Target: recombinant PCNA (human PCNA cDNA, produced in E. coli from plasmid PETPCNA, purified)

B1: procaspase-9 (protein)
chain: MDEADRRLLRRCRLRLVEELQVDQLWDALLSRELFRPHMIEDIQRAGSGSRRDQARQLIIDLETRGSQALPLFISCLEDTGQDMLASFLRTNRQAAKLSKPTLENLTPVVLRPEIRKPEVLRPETPRPVDIGSGGFGDVGALESLRGNADLAYILSMEPCGHCLIINNVNFCRESGLRTRTGSNIDCEKLRRRFSSLHFMVEVKGDLTAKKMVLALLELAQQDHGALDCCVVVILSHGCQASHLQFPGAVYGTDGCPVSVEKIVNIFNGTSCPSLGGKPKLFFIQACGGEQKDHGFEVASTSPEDESPGSNPEPDATPFQEGLRTFDQLDAISSLPTPSDIFVSYSTFPGFVSWRDPKSGSWYVETLDDIFEQWAHSEDLQSLLLRVANAVSVKGIYKQMPGCFNFLRKKLFFKTS
With B1 the “procaspase-9 cleavage in an in vitro activation assay (neutrophil cytosol, cytochrome c, dATP; western blot of caspase-9)” value was “when purified PCNA was added to the mixture, procaspase-9 cleavage was delayed, with persistent procaspase-9 (47 kDa) and diminished 37-kDa fragment detection”.

— patent US20130059773
